Experimental data: patent US20230242586A1, “RAS INHIBITORS AND USES THEREOF” (The Regents of the University of California, priority 2020, published 2023)

Biological target: biotinylated wildtype K-Ras·GppNHp (His-Avi-TEV-KRAS (wildtype)) (human)
Assay: TR-FRET Ras-Raf interaction assay (competition); reference K-Ras(G12D)

fold IC50 on wildtype K-Ras against that for K-Ras(G12D) [fold]	Substance
> 20	bicyclic variant of KD2 (Val3 and Arg9 replaced with azidoalanine and propargylglycine) (peptide)
> 20	bicyclic variant of KD2 (Val3 and Arg9 replaced with two cysteines) (peptide)
